System: ORCA-3 (Catharanthus roseus)
Assay: cell_activity
Settings: GUS/CAT, C. roseus cells

Chain of ORCA-3 (Catharanthus roseus) (chain, as listed by the source): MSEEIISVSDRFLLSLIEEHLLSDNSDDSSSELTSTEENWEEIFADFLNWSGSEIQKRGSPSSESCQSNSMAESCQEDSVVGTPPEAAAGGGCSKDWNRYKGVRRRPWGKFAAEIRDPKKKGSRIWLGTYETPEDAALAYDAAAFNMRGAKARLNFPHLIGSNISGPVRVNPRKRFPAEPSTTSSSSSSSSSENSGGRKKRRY

Str1 NH promoter (-202 to -1)
activity (fold activation): 5
